# Key:
# [1] = Thermal unfolding by nanoDSF; type: physicochemical; details: PBS pH 6.8, 20 to 95° C. at 1° C./min
# Method: FIG. 10 Thermal stability of Fcabs and huFc control molecule. The first derivative of thermal unfolding curves (A) as well as the unfolding transition midpoints (Tm) (B) are shown. To determine thermal unfolding, Fcabs and huFc (PBS pH 6.8) were loaded into nanoDSF grade standard capillaries which were then transferred into a Prometheus NT.PLEX nanoDSF (NanoTemper Technologies) instrument. Samples were subjected to a linear thermal ramp from 20° C. to 95° C. at a slope of 1° C./min with simultaneous recording of fluorescence at 350 and 330 nm. Unfolding transition midpoints (Tm) were determined from the first derivative of the fluorescence ratio 350 nm/330 nm. All samples were measured in duplicates. n.d.—not detected
# As a negative control, we included an unmodified human Fc (huFc) fragment. As EGFR-binding references, a Cetuximab-based full length IgG (C-IgG) and a Cetuximab-derived Fab (C-Fab) fragment, both equipped with a sortase A (SrtA) recognition motif (LPETG) at the C-terminal end of the light chain, were included. […] Moreover, we evaluated functional and selective cellular binding of the purified constructs (FIG. 11, FIG. 12). […] To ensure comparability between individual fluorescence intensities resulting from differently labeled constructs, the fluorescence signals were normalized. […]
# [2] = system: EGFR positive (MDA MB 468 and A431) and EGFR negative (MCF 7) cells; test: Cellular binding analysis by flow cytometry; type: cell-based, human; details: 100 nM, 60 min at 4° C., AF488-labeled detection antibody
substance,measurement,setting,value
"huFc: Modified human IgG1 Fc fragment (D265A), negative control, SEQ ID No. 7","unfolding transition midpoint Tm,1",[1],66 °C
same,cellular binding,[2],do not show any binding

# From patent US20240226319A1, “EGFR TARGETING FC ANTIGEN BINDING FRAGMENT-DRUG CONJUGATES” (MERCK PATENT GMBH, priority 2021, published 2024)
